From PMC12636523
Each block holds one molecule with its values, some of them ahead of it.

Target: cleaved SVS-Dlp (SVS-Dlp coexpressed with Mmp2-FLAG, cleaved in the N-terminal polypeptide) (Drosophila)
Experiment: co-IP; S2R+ cells cotransfected with SVS-dlp and a Wnt, with or without Mmp2-FLAG; clarified lysate (2 mM Tris HCl, 150 mM NaCl, 1% NP-40 substitute, 1 mM EDTA, 5% glycerol, pH 7.4) on GFP-Trap Magnetic Agarose beads, 30 min at 4°C; Western blot under reducing conditions

B1: Wg-HA (Wingless with 3XHA tag) (ligand)
chain: GSSLSQVEGKQKSGRGRGSMWWGIAKVGEPNNITPIMYMDPAIHSTLRRKQRRLVRDNPGVLGALVKGANLAISECQHQFRNRRWNCSTRNFSRGKNLFGKIVDRGCRETSFIYAITSAAVTHSIARACSEGTIESCTCDYSHQSRSPQANHQAGSVAGVRDWEWGGCSDNIGFGFKFSREFVDTGERGRNLREKMNLHNNEAGRAHVQAEMRQECKCHGMSGSCTVKTCWMRLANFRVIGDNLKARFDGATRVQVTNSLRATNALAPVSPNAAGSNSVGSNGLIIPQSGLVYGEEEERMLNDHMPDILLENSHPISKIHHPNMPSPNSLPQAGQRGGRNGRRQGRKHNRYHFQLNPHNPEHKPPGSKDLVYLEPSPSFCEKNLRQGILGTHGRQCNETSLGVDGCGLMCCGRGYRRDEVVVVERCACTFHWCCEVKCKLCRTKKVIYTCL
fold increase of Wg pulled down, normalized to the amount of Dlp, against uncleaved Dlp (median): 2.7 fold

B3: Wnt2-3XHA (ligand)
chain: FTSVMLCGRIPGLTPGQRNMCREMPDALIALGEGHQLGAQECQHQFRGHRWNCSEVWQRNVFAHVIPTASREAAYTYAIASAGAAYAVTAACARGNISTCGCDVRHKATPTGGGTPDEPWKWGGCSADVDFGMRYARRFMDARELERDSRTLMNLHNNRAGRTLVKKMLRTDCKCHGVSGSCVMKTCWKSLPPFRLVGDRLMLKYQKAKTVQAVKGKRGLRLVLSRKKHAGTARAQKPVLDWPKRMELIYLEASPNYCERSLQTGSQGTSGRTCQRTGHGPQSCDLLCCGRGHNTQHIRRTTQCRCQFRWCCEVKCDECDESYEEFTCK
fold increase of Wnt pulled down against uncleaved Dlp (median): 6.2 fold

The remaining lines, values ahead:

fold increase of Wnt pulled down against uncleaved Dlp (median): 2.7 fold
Molecule: Wnt6-3XHA (ligand)

fold increase of Wnt pulled down against uncleaved Dlp (median): 5.9 fold
B2: Wnt4-3XFLAG (ligand)
chain: QVRNEDQLLMVGQNGDLDSSNPAIHHQQHQQHQQHQQHQQHQSNHNLNNGNMNSTILNTLMGNNAGQVVNSSPGGGGSMINQLGSSTSSVPSVIGGGVGSVGNPWHSAVGLGVPGNGMGLPSSHGLGGNMGSHPHGHALAGLAKLGIIVPGGQGLPGNLGYGGTMLNGGGVGGAAGMGLGIGSNTNNMDMQQGLYNEHFISEHTVMAVFTSQGQVGGPCRYMPATRRQNHQCRKETGLPGTLSEARRLATTHCEEQFRYDRWNCSIETRGKRNIFKKLYKETAFVHALTAAAMTHSIARACAEGRMTKCSCGPKKHNREAQDFQWGGCNDNLKHGKRVTRSFLDLRGGDGDEVSEILRHDSEVGIEAVSSQMMDKCKCHGVSGSCSMKTCWKKMADFNATATLLRQKYNEAIRKAPNQRSMRQVSSSRMKKPKQRRKKPQQSQYTTLYYLETSPSYCAVTKDRQCLHPDNCGTLCCGRGYTTQVVKQVEKCRCRFNNGRCCQLICDYCQRLENKYFCK
